In PMC5714209:

Target: A3B 193 CTD (human) (UniProt Q9UH17)
Assay: SEC

A3B 193 CTD (from UniProt Q9UH17 193-382) (domain or fragment)
stoichiometry N: 2
